From patent US20160208004A1 (published 2016)

T1: IL-17RB.Fc (extracellular domain of human IL-17RB fused to the Fc region of human IgG) (human, UniProt Q9NRM6 18-292)
T1 construct: extracellular domain; also called HuIL-17RB: Fc; IL-17RB Fe; not shown: Fc region of human IgG1
T1 sequence (looked up): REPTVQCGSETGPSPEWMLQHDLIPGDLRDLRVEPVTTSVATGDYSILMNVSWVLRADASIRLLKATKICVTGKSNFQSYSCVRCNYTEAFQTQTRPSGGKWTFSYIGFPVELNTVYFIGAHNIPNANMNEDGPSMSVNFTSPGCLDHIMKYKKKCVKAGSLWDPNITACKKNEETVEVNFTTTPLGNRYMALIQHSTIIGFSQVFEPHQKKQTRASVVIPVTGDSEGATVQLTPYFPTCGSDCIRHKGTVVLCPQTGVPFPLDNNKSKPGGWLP


Molecular target: T2, IL-17RA.Fc (extracellular domain of human IL-17RA fused to the Fc region of human IgG) (human, UniProt Q96F46 33-320)
T2 construct: extracellular domain; also called IL-17RA Fe; not shown: Fc region of human IgG1
Assay: co-immunoprecipitation on Protein G beads, Western blot

Binder	binding result
Human IL-17RD.HIS (receptor, UniProt Q8NFM7 27-299, looked up, R&D Systems product; not shown: HIS tag) AGGSGRARGADTCGWRGVGPASRNSGLYNITFKYDNCTTYLNPVGKHVIADAQNITISQYACHDQVAVTILWSPGALGIEFLKGFRVILEELKSEGRQCQQLILKDPKQLNSSFKRTGMESQPFLNMKFETDYFVKVVPFPSIKNESNYHPFFFRTRACDLLLQPDNLACKPFWKPRNLNISQHGSDMQVSFDHAPHNFGFRFFYLHYKLKHEGPFKRKTCKQEQTTETTSCLLQNVSPGDYIIELVDDTNTTRKVMHYALKPVHSPWAGPIR	no binding (tested: 2 micrograms of each protein)

Molecular target: T1, IL-17RB.Fc (extracellular domain of …)
Assay: as above

Binder	binding result
Human IL-17RD.HIS (receptor, UniProt Q8NFM7 27-299, looked up, R&D Systems product; not shown: HIS tag) AGGSGRARGADTCGWRGVGPASRNSGLYNITFKYDNCTTYLNPVGKHVIADAQNITISQYACHDQVAVTILWSPGALGIEFLKGFRVILEELKSEGRQCQQLILKDPKQLNSSFKRTGMESQPFLNMKFETDYFVKVVPFPSIKNESNYHPFFFRTRACDLLLQPDNLACKPFWKPRNLNISQHGSDMQVSFDHAPHNFGFRFFYLHYKLKHEGPFKRKTCKQEQTTETTSCLLQNVSPGDYIIELVDDTNTTRKVMHYALKPVHSPWAGPIR	no binding (tested: 2 micrograms of each protein)

Molecular target: human IL-17RA (human, UniProt Q96F46 33-866)
Assay: cell-based or functional assay

% Inhib. of IL-5 production, TSLP treated human PBMC + IL-2 + IL-25, Expt. 1 [%]	% Inhib. of IL-5 production, TSLP treated human PBMC + IL-2 + IL-25, Expt. 2 [%]	% Inhib. of IL-5 production, TSLP treated human PBMC + IL-2 + IL-25, Expt. 3 [%]	Binder
0	79	0	2.98.1 (antibody, V domains shown) VH: QVQLVQSGAEVKKPGASVKVSCKASGYTLTRYGISWVRQAPGQGLEWMGWISAYNGNTNYAQKLQGRVTMTTDTSTSTAYMELRSLRSDDTAVYYCARRDYDILTGYYNGFDPWGQGTLVTVSS VL: DIQMTQSPSSLSASVGDRVTITCRASQGIRNDLGWYQQKPGKAPKRLIYAASSLQSGVPSRFSGSGSGTEFTLTISSLQPEDFATYYCLQHKSYPLTFGGGTKVEIK
0	41	9	1.185.1 (antibody, V domains shown) VH: QVQLVESGGGVVQPGRSLRLSCAASGINFSSYGMHWVRQAPGKGLEWVAVIWYDGSNKHYADSVKGRFTISRDNSKNTLYLQMNSLRAEDTAVYYCARDTGVYWGQGTLVTVSS VL: not shown
0	43	0	3.1545.1 (antibody, V domains shown) VH: EVQLVESGGGSVQPGGSLRLSCAASGFTFSSYSMNWVRQAPGKGLEWVSIISSRSSIIHYADSVKGRFTISRDNAKNSLYLQMNSLRDEDTAVYYCARPKVGGGMDVWGQGTTVTVSS VL: DIQMTQSPSSLSASVGDRVTITCRASQGISNYLAWYQQKPGKFPELLIYAASTLQSGVPSRFSGSGSGTDFTLTISSLQPEDVATYYCQKYNRAPFTFGPGTKVDIK

The next lines start with the binder.

Binder	% Inhib. of IL-5 production, TSLP treated human PBMC + IL-2 + IL-25, Expt. 1 [%]	% Inhib. of IL-5 production, TSLP treated human PBMC + IL-2 + IL-25, Expt. 2 [%]	% Inhib. of IL-5 production, TSLP treated human PBMC + IL-2 + IL-25, Expt. 3 [%]
2.67.1 (antibody, V domains shown) VH: QVQLVQSGAEVKKPGASVKVSCKASGYTLTRYGISWVRQAPGQGLEWMGWISAYNGNTNYAQKLQGRVTMTTDTSTSTAYMELRSLRSDDTAVYYCARRDYDILTGYYNGFDPWGQGTLVTVSS VL: DIQMTQSPSSLSASVGDRVTITCRASQGIRNDLGWYQQKPGKAPKRLIYAASSLQSGVPSRFSGSGSGTEFTLTISSLQPEDFATYYCLQHKSYPLTFGGGTKVEIK	0	13	3
2.225.1 (antibody, V domains shown) VH: QVQLVQSGVEVKKPGASVKVSCKASGYTLTRYGISWVRQAPGQGLEWMGWISAYNGNTNYAQKLQGRVTMTTDTSTSTAYMELRSLRSDDTAVYYCARRDYDILTGYYNGFDPWGQGTLVTVSS VL: DIQMTQSPSSLSASVGDRVTITCRASQGIRNDLGWYQQKPGKAPKRLIYAASSLQSGVPSRFSGSGSGTEFTLTISSLQPEDFATYYCLQHKSYPLTFGGGTKVEIK	0	–	0
2.46.1 (antibody, V domains shown) VH: QVQLVQSGAEVKKPGASVKVSCKASGNTFTGYGISWVRQAPGQGLEWMGWISAYNGNTNYAQNLQGRVTMTTDTSTSTAYMELRSLRSDDTAVYYCARRDYDILTGYYNGFDPWGQGTLVTVSS VL: DIQMTQSPSSLSASVGDRVTITCRASQGIRNDLGWYQQKPGKAPKRLIYAASSLQSGVPSRFSGSGSGTEFTLTISSLQPEDFATYYCLQHKSYPLTFGGGTKVEIK	0	6	0
4.357.1 (antibody, V domains shown) VH: QVQLVQSGAEVKKPGASVKVSCKASGYTLTSYGISWVRQAPGQGLEWMGWISTYKGNTNYAQKLQGRVTMTTDTSTSTAYMELRSLRSDDTAVYYCARKQLVFDYWGQGTLVTVSS VL: EIVMTQSPATLSVSPGERATLSCRASQSISSSLAWYQQKPGQAPRLLIYGASTRATGIPARFSGSGSGTEFTLTISSLQSENFAVYYCQQYDNWPLTFGGGTKVEIK	0	–	11
4.393.1 (antibody, V domains shown) VH: QVQLVQSGAEVKKPGASVKVSCKASGYTFTSYGISWVRQAPGQGLEWMGWISAYNGNTKYAQKLQGRVTMTTDTSTSTVYMELRSLRSDDTAVYYCARKQLVFDYWGQGTLVTVSS VL: EIVMTQSPATLSVSPGERATLSCRASQSISTSLAWYQQKPGQAPRLLIYGTSTRATGIPARFSGSGSGTEFTLTISSLQSEDFAVYFCQQYDIWPLTFGGGTKVEIK	28	72	45
